Assay results taken from US20240058465A1 (SUTRO BIOPHARMA, published 2024).

Assays:
[1] = target: T1, human ROR1 (hROR1) (human, UniProt Q01973 30-937); test: flow cytometry, HCT116-hROR1 cells
T1 construct: On HCT116-hROR1 transfectants, Mino cells or Ntera-2 cells, as the assay of each row says; also called receptor tyrosine kinase like orphan receptor 1

[2] = target: T2, human ROR1 Frizzled domain (hROR1-Fz) (human, UniProt Q01973 165-305); test: SPR Biacore, IgG on anti-Fc, ROR1-Fz analyte
T2 construct: Acro Biosystems, made in HEK293
Summary of the method: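 Test antibodies captured on an anti-Fc surface (CM5 chip), then analyte bound for 180 s with 600 s dissociation at 25° C in HBS-EP+ buffer at 50 μL/min. Human ROR1 ECD, Frizzled or Kringle domain used as analyte; regeneration with 10 mM glycine pH 2.0.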

[3] = target: T3, human ROR1 (hROR1) expressed on cells (human, UniProt Q01973 30-937); test: flow cytometry, HCT116-hROR1 cells
T3 construct: Mino cells are the target positive cells of the killing assay; also called receptor tyrosine kinase like orphan receptor 1; HCT 116-hROR1

[4] = target: T4, human ROR1-ECD (human, UniProt Q01973 30-406); test: SPR (Biacore), antibody captured by anti-Fc, human ROR1-ECD analyte
T4 construct: Bought protein; also called hROR1; ROR1-extracellular domain
Procedure: Anti-Fc polyclonal antibodies were immobilized onto a CMS chip (GE Life Sciences) using amine coupling chemistry (from Amine Coupling Kit, GE Life Sciences). The immobilization steps were carried out at a flow rate of 25 μL/min in 1×HBS-EP+buffer (GE Life Sciences; 10× Stock diluted before use). The sensor surfaces were activated for 7 min with a mixture of NHS (0.05 M) and EDC (0.2 M). The Anti-Fc antibodies were injected over all 4 flow cells at a concentration of 25 ug/ml in 10 mM sodium acetate, pH 4.5, for 7 min. Ethanolamine (1 M, pH 8.5) was injected for 7 min to block any remaining activated groups.
Off-rate and kinetic binding experiments were performed at 25° C. using 1×HBS-EP+buffer. Test and control antibodies were injected over the anti-Fc surface at concentrations of 5-10 μg/mL for 12 seconds at a flow rate of 10 μL/min on flow cells 2, 3 and 4, followed by a buffer wash for 30 seconds at the same flow rate. […] After capturing ligand (antibody) on the anti-Fc surface, the analyte (hROR1, Fz or Kr domains, Acro Biosystems, Delaware) was bound for 180 seconds, followed by a 600 second dissociation phase at a flow rate of 50 μL/min. Between each ligand capture and analyte binding cycle, regeneration was carried out using 2 injections of 10 mM Glycine pH 2.0 for 30 seconds at 30 μL/min, followed by a 30 second buffer wash step.

Row | Binder | Bmax (MFI) [3] [MFI] | Kd [3] [pM] | Kd [4] [pM] | koff [4] [s⁻¹] | kon [4] [M⁻¹ s⁻¹] | other results
1 | SRP1944-A07 w SP34 LC3 (antibody, V domains shown, Parent of SRP2196; IgG) VH: EVQLVESGGGLVQPGGSLRLSCAASGFNITGYYIHWVRQAPGKGLEWVGYISPNSGSTYYADSVKGRFTISADTSKNTAYLQMNSLRAEDTAVYYCARDSRRYVRPFDYWGQGTLVTVSS VL: QTVVTQEPSLTVSPGGTVTLTCGSSTGAVTSGYYPNWFQQKPGQAPRGLIGGTKFLAPGTPARFSGSLLGGKAALTLSGVQPEDEAEYYCALWYSNRWVFGGGTQLTVTG | – | – | – | – | – | Bmax (MFI) [1]: 13200 MFI; Kd [1]: 100 pM; Kd [2]: 14300 pM; koff [2]: 0.0085 s⁻¹; kon [2]: 597000 M⁻¹ s⁻¹
2 | SRP2188-A06 (antibody, IgG1, V domains shown, IgG1 with trastuzumab LC; HIS- and FLAG-tagged; cell-free expressed) VH: EVQLVESGGGLVQPGGSLRLSCAASGFNIKSYDIHWVRQAPGKGLEWVGWINPDDGDTYHADSVKGRFTISADTSKNTAYLQMNSLRAEDTAVYYCARDYGVFDYWGQGTLVTVSS VL: not shown | 8950 | 20 | – | – | – | –
3 | SRP2188-B06 (antibody, IgG1, V domains shown, IgG1 with trastuzumab LC; HIS- and FLAG-tagged; cell-free expressed) VH: EVQLVESGGGLVQPGGSLRLSCAASGFNIHSYDIHWVRQAPGEGLEWVGWINPDDGDTYHADSVKGRFTISADTSKNTAYLQMNSLRAEDTAVYYCARDYGVFDYWGQGTLVTVSS VL: not shown | 9130 | 60 | 504 | 0.000467 | 927000 | –
4 | SRP2188-E08 (antibody, IgG1, V domains shown, IgG1 with trastuzumab LC; HIS- and FLAG-tagged; cell-free expressed) VH: EVQLVESGGGLVQPGGSLRLSCAASGFNIIDFDIHWVRQAPGKGLEWVGGIDPQDGSTDLADSVKGRLTISADTSKNTAYLQMNSLRAEDTAVYYCARDYGVFDYWGQGTLVTVSS VL: not shown | 9330 | 30 | – | – | – | –
5 | SRP2188-B02 (antibody, IgG1, V domains shown, IgG1 with trastuzumab LC; HIS- and FLAG-tagged; cell-free expressed) VH: EVQLVESGGGLVQPGGSLRLSCAASGFNISSYDIHWVRQAPGKGLEWVGWINPDDGDTYLADSVKGRFTISADTSKSTAYLQMNSLRAEDTAVYYCARDYGVFDYWGQGTLVTVSS VL: not shown | 9760 | 30 | – | – | – | –
6 | SRP2188-B11 (antibody, IgG1, V domains shown, IgG1 with trastuzumab LC; HIS- and FLAG-tagged; cell-free expressed) VH: EVQLVESGGGLVQPGGSLRLSCAASGFNINRYDIHWVRQAPGKGLEWVGWINPDDGDTFLADSVKGRFTISADTSKSTAYLQMNSLRAEDTAVYYCARDYGVFDYWGQGTLVTVSS VL: not shown | 8730 | 40 | – | – | – | –
7 | SRP2188-C08 (antibody, IgG1, V domains shown, IgG1 with trastuzumab LC; HIS- and FLAG-tagged; cell-free expressed) VH: EVQLVESGGGLVQPGGSLRLSCAASGFNIKSHDIHWVRQAPGKGLEWVGWINPDDGDTYHADSVKGRFTISADTSKNTAYLQMNSLRAEDTAVYYCARDYGVFDYWGQGTLVTVSS VL: not shown | 8570 | 30 | – | – | – | –
8 | SRP2188-C06 (antibody, IgG1, V domains shown, IgG1 with trastuzumab LC; HIS- and FLAG-tagged; cell-free expressed) VH: EVQLVESGGGLVQPGGSLRLSCAASGFNINSYDIHWVRQAPGKGLEWVGWINPDDGDTYLADSVKGRFTISADTSKNTAYLQMNSLRAEDTAVYYCARDYGVFDYWGQGTLVTVSS VL: not shown | 9580 | 30 | – | – | – | –
9 | SRP2188-C04 (antibody, IgG1, V domains shown, IgG1 with trastuzumab LC; HIS- and FLAG-tagged; cell-free expressed) VH: EVQLVESGGGLVQPGGSLRLSCAASGFNINSYDIHWVRQAPGKGLEWVGWINPEDGDTYHADSVRGRFTISADTSKNTAYLQMNSLRAEDTAVYYCARDYGVYDYWGQGTLVTVSS VL: not shown | 9500 | 30 | 139 | 0.000101 | 723000 | –
10 | SRP2188-B09 (antibody, IgG1, V domains shown, IgG1 with trastuzumab LC; HIS- and FLAG-tagged; cell-free expressed) VH: EVQLVESGGGLVQPGGSLRLSCAASGFNINSYDIHWVRQAPGKGLEWVGVIDPKDGWTDHADSVKGRFTISADTSKNTAYLQMNSLRTEDTAVYYCARDYGVFDYWGQGTLVTVSS VL: not shown | 9420 | 50 | 657 | 0.000579 | 882000 | –
11 | SRP2188-E09 (antibody, IgG1, V domains shown, IgG1 with trastuzumab LC; HIS- and FLAG-tagged; cell-free expressed) VH: EVQLVESGGGLVQPGGSLRLSCAASGFNISDFDIHWVRQAPGKGLEWVAEIDPQDGWTVHADSVKGRFTISADTSKNTAYLQMNSLRAEDTAVYYCARDYGVFDYWGQGTLVTVSS VL: not shown | 9780 | 20 | – | – | – | –
12 | SRP2188-A10 (antibody, IgG1, V domains shown, IgG1 with trastuzumab LC; HIS- and FLAG-tagged; cell-free expressed) VH: EVQLVESGGGLVQPGGSLRLSCAASGFNINSYDIHWVRQAPGKGLEWVGWINPEDGDTSHADSVKGRFTISADTSKNTAYLQMNSLRAEDTAVYYCARDYGVFDYWGQGTLVTVSS VL: not shown | 9150 | 30 | 426 | 0.000222 | 522000 | –
13 | SRP2188-A11 (antibody, IgG1, V domains shown, IgG1 with trastuzumab LC; HIS- and FLAG-tagged; cell-free expressed) VH: EVQLVESGGGLVQPGGSLRLSCAASGFNISDYDIHWVRQAPGKGLEWVSLIDPKDGATDSADSVKGRFTISADTSKNTAYLQMNSLRAGDTAVYYCARDYGVFDYWGQGTLVTVSS VL: not shown | 8340 | 60 | 354 | 0.000379 | 1.07e+06 | –
14 | SRP2188-B10 (antibody, IgG1, V domains shown, IgG1 with trastuzumab LC; HIS- and FLAG-tagged; cell-free expressed) VH: EVQLVESGGGLVQPGGSLRLSCAASGFNINSYDIHWVRQAPGKGLEWVGWINPHDGDTYHADSVKGRFTISADTSKNTAYLQMNSLRAEDTAVYYCARDYGVFDYWGQGTLVTVSS VL: not shown | 9000 | 40 | 462 | 0.000539 | 1.17e+06 | –
15 | SRP2188-E07 (antibody, IgG1, V domains shown, IgG1 with trastuzumab LC; HIS- and FLAG-tagged; cell-free expressed) VH: EVQLVESGGGLVQPGGSLRLSCAASGFNIGDYGIHWVRQAPGKGLEWVGGIDPEDGFTVHADSVKGRFTISADTSKNTAYLQMNSLRAEDTAVYYCARDYGVYDYWGQGTLVTVSS VL: not shown | 7600 | 20 | – | – | – | –
16 | SRP2188-F02 (antibody, IgG1, V domains shown, IgG1 with trastuzumab LC; HIS- and FLAG-tagged; cell-free expressed) VH: EVQLVESGGGLVQPGGSLRLSCAASGFNISDYDIHWVRQAPGKGLEWVAWIDPSDGSTEHADSVKGRFTISADTSKNTAYLQMSSLRAEDTAVYYCARDYGVFDYWGQGTLVTVSS VL: not shown | 9850 | 30 | – | – | – | –
17 | SRP2188-F07 (antibody, IgG1, V domains shown, IgG1 with trastuzumab LC; HIS- and FLAG-tagged; cell-free expressed) VH: EVQLVESGGGLVQPGGSLRLSCAASGFNISDYDIHWVRQAPGKGLEWVGGIDPNDGSTDHADSVKGRFTISADTSKNMAYLQMNSLRAEDTAVYYCARDYGVFDYWGQGTLVTVSS VL: not shown | 9870 | 30 | – | – | – | –
18 | SRP2188-E11 (antibody, IgG1, V domains shown, IgG1 with trastuzumab LC; HIS- and FLAG-tagged; cell-free expressed) VH: EVQLVESGGGLVQPGGSLRLSCAASGFNISHYDIHWVRQAPGKGLEWVSGIDPGDGATDHADSVKGRFTISADTSKNTAYLQMNSLRAEDTAVYYCARDYGVFDYWGQGTLVTVSS VL: not shown | 9250 | 30 | – | – | – | –
19 | SRP2188-C05 (antibody, IgG1, V domains shown, IgG1 with trastuzumab LC; HIS- and FLAG-tagged; cell-free expressed) VH: EVQLVESGGGLVQPGGSLRLSCAASGFNINSFDIHWVRQAPGKGLEWVGGIDPRDGSTDSADSVKGRFTISADTSKNTAYLQMNSLRAEDTAVYYCARDYGVFDYWGQGTLVTVSS VL: not shown | 9510 | 60 | 427 | 0.000453 | 1.06e+06 | –
20 | SRP2188-C01 (antibody, IgG1, V domains shown, IgG1 with trastuzumab LC; HIS- and FLAG-tagged; cell-free expressed) VH: EVQLVESGGGLVQPGGSLRLSCAASGFNIISYDIHWVRQAPGKGLEWVSLIDPHDGSTDSADSVKGRFTISADTSKNTAYLQMNSLRAEDTAVYYCARDYGVFDYWGQGTLVTVSS VL: not shown | 10100 | 380 | – | – | – | –
21 | SRP2188-C10 (antibody, IgG1, V domains shown, IgG1 with trastuzumab LC; HIS- and FLAG-tagged; cell-free expressed) VH: EVQLVESGGGLVQPGGSLRLSCAASGFNINSYDIHWVRQAPGKGLEWVGWINPDDGDTYHADSVKGRFTISADTSKNTAYLQMNSLRAEDTAVYYCARDYGVFDYWGQGTLVTVSS VL: not shown | 9310 | 50 | – | – | – | –
